To fix the notation:
B1: TPR t1 (parent)
chain: GACCAAUCUGCCCUCAGAGCUCGAGAACAUCUUCGGAUGCAGAGGAGGCAGGCUUCGGUGGCGCGAUAGCGCCAACGUCCUCAACCUCCAAUGCAUCCCACCACAUGAUGAUGCCUGAAGAGCCUUGGUUUUUUG

Variants of B1 are the subject of the data set. The experiment in a line: polymerase ribozyme fitness, log enrichment relative to wild type (log ratio); higher = more active; in vitro selection for triplet polymerase activity. An outline of the steps:
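Streptavidin-bead capture of gel-excised extended constructs, followed by RT-PCR, closed a single triplicate in vitro selection round. That round began by annealing PCR-built, transcribed mutant libraries of each subunit of a heterodimeric triplet polymerase ribozyme with a biotinylated primer, the partner subunit and triplets, then incubating them frozen at −7 °C. After Illumina sequencing of inputs and outputs, genotypes needed ≥10 input reads and ≥1 read per output. Fitness is the base-2 logarithm of genotype enrichment over wild-type enrichment, using inverse-variance-weighted replicate averages.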
Regarding A27C C82G G110U, the “polymerase ribozyme fitness (log ratio)” value was -5.23.

As to A27U C104U A111C G120C, the “polymerase ribozyme fitness (log ratio)” value was -6.95.

Regarding U30A G48C G57A C124G, the “polymerase ribozyme fitness (log ratio)” value is -4.73.

C28U U112C U116A: the “polymerase ribozyme fitness (log ratio)” value is -1.82.

As for A29U A83U C86A C114A A118U, the “polymerase ribozyme fitness (log ratio)” value is -3.87.

For the variant U30A U112C, the “polymerase ribozyme fitness (log ratio)” value is -2.73.

Take A27G C56A A74C U87A U112A: the “polymerase ribozyme fitness (log ratio)” value is -0.205.

With C28G C82G C86A, the “polymerase ribozyme fitness (log ratio)” value was -3.55.

For C28U G39U A111C, the “polymerase ribozyme fitness (log ratio)” value is -6.59.

Take A27U C49G G51U C79G: the “polymerase ribozyme fitness (log ratio)” value is -6.98.

With U30C G61C C72U A95U, the “polymerase ribozyme fitness (log ratio)” value is -4.

Regarding A29G U130G, the “polymerase ribozyme fitness (log ratio)” value was -1.15.

For A27G G42U A75G, the “polymerase ribozyme fitness (log ratio)” value was -3.6.

As for C28U G52C C56G G120A, the “polymerase ribozyme fitness (log ratio)” value is -2.52.

For C28U C64U G93U, the “polymerase ribozyme fitness (log ratio)” value is -3.83.

Take A29U U109G G122A: the “polymerase ribozyme fitness (log ratio)” value was -1.47.

With A29C A41G, the “polymerase ribozyme fitness (log ratio)” value is -2.15.

On to C28A G61A, for which the “polymerase ribozyme fitness (log ratio)” value was -4.06.

Take A29G G47C C53A U59A: the “polymerase ribozyme fitness (log ratio)” value is -2.24.

Turning to A29G G57U G128C, the “polymerase ribozyme fitness (log ratio)” value is -3.73.

For the variant A29G C62A, the “polymerase ribozyme fitness (log ratio)” value is -2.33.

Regarding A27C U54C, the “polymerase ribozyme fitness (log ratio)” value was -2.56.

For the variant U30A G110U, the “polymerase ribozyme fitness (log ratio)” value was -4.94.

For C28U G42C, the “polymerase ribozyme fitness (log ratio)” value is -3.36.

Take A29U C72U C102U: the “polymerase ribozyme fitness (log ratio)” value is -5.4.

In the case of A27U C104U, the “polymerase ribozyme fitness (log ratio)” value is -3.5.

In the case of A29U C53U C56U G69U G93C, the “polymerase ribozyme fitness (log ratio)” value is -3.98.

Turning to A29C C49U C72U, the “polymerase ribozyme fitness (log ratio)” value was -4.03.

On to A27G C64U C73U, for which the “polymerase ribozyme fitness (log ratio)” value was -2.48.

As for C28U U106A, the “polymerase ribozyme fitness (log ratio)” value was -0.471.

In the case of C28U C49A G61U C86U, the “polymerase ribozyme fitness (log ratio)” value is -2.72.

Turning to A29C A46U U54G U78C G120U, the “polymerase ribozyme fitness (log ratio)” value is -3.43.

On to A29G C73U C114A, for which the “polymerase ribozyme fitness (log ratio)” value is -1.97.

As for A27U G39U, the “polymerase ribozyme fitness (log ratio)” value is -4.25.

Consider A27U G39C, for which the “polymerase ribozyme fitness (log ratio)” value was -3.26.

Take A29G C49G G57C A121C: the “polymerase ribozyme fitness (log ratio)” value was -0.725.

Regarding A29G A37G A84G G110U A121G, the “polymerase ribozyme fitness (log ratio)” value was -3.06.

For the variant A29C C102A U109G, the “polymerase ribozyme fitness (log ratio)” value was -2.1.

In the case of C28A G44U U78G G113A, the “polymerase ribozyme fitness (log ratio)” value was -4.24.

As for A27U C49U A90G G93U, the “polymerase ribozyme fitness (log ratio)” value is -3.23.

With A27U C79G G127U, the “polymerase ribozyme fitness (log ratio)” value is -4.93.

In the case of A29U C56G G58C G77A C88U G120C C123G U129A, the “polymerase ribozyme fitness (log ratio)” value was -5.14.

Turning to A27U C49G U54C, the “polymerase ribozyme fitness (log ratio)” value was -3.58.

As for U30C C40U C53G C56G C62U C76A, the “polymerase ribozyme fitness (log ratio)” value was -5.08.

Regarding C28U G47C C73A C97U, the “polymerase ribozyme fitness (log ratio)” value is -3.8.

Regarding C28G G42C G52C G69U G107A A108G C124G, the “polymerase ribozyme fitness (log ratio)” value was -7.26.

As for U30C A41G, the “polymerase ribozyme fitness (log ratio)” value was -3.33.

In the case of A27G C40U C49G C73U, the “polymerase ribozyme fitness (log ratio)” value is -2.98.

For A29U G51C G120U, the “polymerase ribozyme fitness (log ratio)” value is -3.96.

On to A29G G61U C85A C102U, for which the “polymerase ribozyme fitness (log ratio)” value is -5.28.

On to A29U G48C, for which the “polymerase ribozyme fitness (log ratio)” value was -2.86.

Regarding C28A U78C A91U U106A G110U, the “polymerase ribozyme fitness (log ratio)” value worked out at 0.263.

As for U30C C62U U78C, the “polymerase ribozyme fitness (log ratio)” value was -3.36.

As for C28A A119U, the “polymerase ribozyme fitness (log ratio)” value was -4.75.

On to A27U A46U, for which the “polymerase ribozyme fitness (log ratio)” value is -4.77.

A29C G36U G45U: the “polymerase ribozyme fitness (log ratio)” value is -4.64.

For the variant A29G G48U G57C C73U, the “polymerase ribozyme fitness (log ratio)” value was -1.71.

A29U C88U: the “polymerase ribozyme fitness (log ratio)” value was -1.36.

On to C28A G93C G110A, for which the “polymerase ribozyme fitness (log ratio)” value was -0.645.

As for A29C A75G U78G, the “polymerase ribozyme fitness (log ratio)” value is -2.56.

In the case of U30C C62U U78A U106C A121U, the “polymerase ribozyme fitness (log ratio)” value is -3.04.

Turning to U30C G45U, the “polymerase ribozyme fitness (log ratio)” value was -4.52.

Regarding A29G U32C A50U C73U, the “polymerase ribozyme fitness (log ratio)” value is -2.14.

As for A27C U54A C64A G113A, the “polymerase ribozyme fitness (log ratio)” value was -5.44.

As to A29U C94A C102G U109C U130C, the “polymerase ribozyme fitness (log ratio)” value is -6.22.

As to C28A G71C, the “polymerase ribozyme fitness (log ratio)” value is -5.69.

As for C28G G61A G113C, the “polymerase ribozyme fitness (log ratio)” value was -5.25.

Regarding A27G U38C C40G C49G G63U A95G U132A, the “polymerase ribozyme fitness (log ratio)” value was -3.68.

As to C28G C73U C97U, the “polymerase ribozyme fitness (log ratio)” value is -3.34.

For the variant U30C C56U, the “polymerase ribozyme fitness (log ratio)” value is -2.08.

Regarding A27U G69U, the “polymerase ribozyme fitness (log ratio)” value is -1.45.

With C28A C72A C123G U126C, the “polymerase ribozyme fitness (log ratio)” value was -2.

As for A27G C53G, the “polymerase ribozyme fitness (log ratio)” value is -1.84.

With C28G C34G G110A G117U, the “polymerase ribozyme fitness (log ratio)” value is -5.7.

As to C28U C80U A90G C124G, the “polymerase ribozyme fitness (log ratio)” value is -0.852.

In the case of A27G C88A, the “polymerase ribozyme fitness (log ratio)” value is -2.13.

On to A27G C49A U96A, for which the “polymerase ribozyme fitness (log ratio)” value is -3.34.

Regarding A29G C79G, the “polymerase ribozyme fitness (log ratio)” value was -2.5.

Consider A29C C62G, for which the “polymerase ribozyme fitness (log ratio)” value is -4.52.

Regarding C28U G52U G120C, the “polymerase ribozyme fitness (log ratio)” value is -2.81.

For the variant C28U C49G A91U U106A, the “polymerase ribozyme fitness (log ratio)” value is -5.37.

Take A27U A119C G120A: the “polymerase ribozyme fitness (log ratio)” value is -2.76.

Turning to C28U G52U C73G U78G G120U, the “polymerase ribozyme fitness (log ratio)” value was -4.03.

As for A27C C72U C124A, the “polymerase ribozyme fitness (log ratio)” value is -1.07.

The values are drawn from the RNAGym collection of RNA variant scans (doi:10.1073/pnas.2313332121).
